± gives the uncertainty stated by the source.
Experiment: self-splicing fitness, log relative to wild type (ln ratio); higher = more splicing; Tetrahymena group I intron in knt gene, E. coli kanamycin selection, DiMSum; sequences stand for … in CUCUCU…GGAGGGAAAAGUUAUCAGGCAUGCACCUGGUAGCUAGUCUUUAAACCAAUAGAUUGCAUCGGUUUAAAAGGCAAGACCGUCAAAUUGCGGGAAAGGGGUCAACAGCCGUUCAGUACCAAGUCUCAGGGGAAACUUUGAGAUGGCCUUGCAAAGGGUAUGGUAAUAAGCUGACGGACAUGGUCCUAACCACGCAGCCAAGUCCUAAGUCAACAGAUCUUCUGUUGAUAUGGAUGCAGUUCACAGACUAAAUGUCGGUCGGGGAAGAUGUAUUCUUCUCAUAAGAUAUAGUCGGACCUCUCCUUAAUGGGAGCUAGCGGAUGAAGUGAUGCAACACUGGAGCCGCUGGGAACUAAUUUGUAUGCGAAAGUAUAUUGAUUAGUUUUGGAGUACUCGUGGUCG
Summary of the method: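 Colonies from six replicate transformations of E. coli BL21(DE3) were pooled and amplicon-sequenced on an Illumina HiSeq 2500. The library placed an intron with all eight P1ex-region nucleotides randomised inside the knt kanamycin-resistance gene on pET-22b(+), and cells grew overnight at 37°C or 30°C on LB agar with or without 25 μg/mL kanamycin (plus 100 μg/mL carbenicillin, 50 μM IPTG, 0.2% rhamnose). Fitness is the DiMSum error-weighted combination of wild-type-normalised replicate fold changes, kanamycin versus none.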

| Sequence | self-splicing fitness (ln) (30 °C) | self-splicing fitness (ln) (37 °C) |
| --- | --- | --- |
| GGGUAGCAAUAUUACGCUUA | -0.435 ± 0.15 | -0.957 ± 0.13 |
| GGCCAGCAAUAUUACGCUCU | -0.639 ± 0.12 | -0.0247 ± 0.17 |
| AGCAAGCAAUAUUACGGUAG | -3.4 ± 0.14 | -2.75 ± 0.15 |
| AUGGAGCAAUAUUACGACAC | -1.26 ± 0.32 | -1.08 ± 0.26 |
| CUCAAGCAAUAUUACGCUGC | -3.68 ± 0.21 | -2.63 ± 0.19 |
| CAGAAGCAAUAUUACGACAG | -0.805 ± 0.15 | -0.248 ± 0.23 |
| UGGAAGCAAUAUUACGGGAC | -2.63 ± 0.21 | -3.26 ± 0.32 |
| AUUUAGCAAUAUUACGAUCG | -1.76 ± 0.15 | -0.669 ± 0.12 |
| UCAAAGCAAUAUUACGCGAA | -1.88 ± 0.11 | -0.986 ± 0.12 |
| AUUCAGCAAUAUUACGCUUA | -0.623 ± 0.078 | -0.332 ± 0.091 |
| GAUGAGCAAUAUUACGCAGU | -3.61 ± 0.3 | -2.44 ± 0.33 |
| UCAGAGCAAUAUUACGUUUC | -3.15 ± 0.23 | -3.04 ± 0.38 |
| UCCGAGCAAUAUUACGGCGA | -0.0162 ± 0.1 | -0.0341 ± 0.12 |
| AACAAGCAAUAUUACGUUCC | -3.85 ± 0.36 | -0.835 ± 0.2 |
| AAUAAGCAAUAUUACGAUAC | -2.25 ± 0.25 | -1.44 ± 0.44 |
| CAGCAGCAAUAUUACGGCCG | -0.67 ± 0.08 | -0.622 ± 0.12 |
| UUCCAGCAAUAUUACGGAUU | -1.9 ± 0.11 | -1.01 ± 0.12 |
| AGCUAGCAAUAUUACGGACG | -0.719 ± 0.075 | -0.105 ± 0.1 |
| UACAAGCAAUAUUACGAUGG | -1.37 ± 0.079 | -0.712 ± 0.085 |
| AGAAAGCAAUAUUACGCUAU | -2.98 ± 0.18 | -1.62 ± 0.18 |
| CCAAAGCAAUAUUACGUGAA | -4.04 ± 0.17 | -3.18 ± 0.27 |
| CGAUAGCAAUAUUACGAUCG | -2.55 ± 0.24 | -2.39 ± 0.38 |
| UAUUAGCAAUAUUACGUAGU | -2.56 ± 0.26 | -2.47 ± 0.35 |
| UGAUAGCAAUAUUACGGGGG | -1.83 ± 0.18 | -2.45 ± 0.28 |
| ACGUAGCAAUAUUACGCUUG | -1.26 ± 0.083 | -1.28 ± 0.093 |

| Sequence | self-splicing fitness (ln) (30 °C) | self-splicing fitness (ln) (37 °C) |
| --- | --- | --- |
| ACGGAGCAAUAUUACGCAAC | – | -2.4 ± 0.35 |
| AAAAAGCAAUAUUACGCCGG | -1.62 ± 0.11 | 0.057 ± 0.12 |
| CAUUAGCAAUAUUACGACGG | -0.257 ± 0.094 | -0.0198 ± 0.13 |
| AGAAAGCAAUAUUACGUAGU | -2.98 ± 0.15 | -1.55 ± 0.1 |
| UCCGAGCAAUAUUACGAGAA | -1.91 ± 0.35 | -2.27 ± 0.38 |
| ACAGAGCAAUAUUACGAUAU | -3.55 ± 0.29 | -2.62 ± 0.32 |
| CAGGAGCAAUAUUACGUAAG | -0.111 ± 0.097 | 0.23 ± 0.12 |
| ACACAGCAAUAUUACGUAUG | -2.32 ± 0.076 | -1.9 ± 0.098 |
| GUCAAGCAAUAUUACGUGCA | -1.58 ± 0.11 | -0.243 ± 0.1 |
| GUUAAGCAAUAUUACGUUGA | -3.87 ± 0.33 | -1.43 ± 0.25 |
| GGCUAGCAAUAUUACGCGUG | -0.672 ± 0.071 | -1.13 ± 0.083 |
| AAUUAGCAAUAUUACGGGCA | -0.73 ± 0.14 | 0.186 ± 0.11 |
| ACGCAGCAAUAUUACGUUCU | -1.1 ± 0.082 | -0.958 ± 0.09 |
| GACUAGCAAUAUUACGCUAG | -2.44 ± 0.31 | -1.16 ± 0.26 |
| CACCAGCAAUAUUACGGAAC | -4.01 ± 0.17 | -2.06 ± 0.14 |
| GCAAAGCAAUAUUACGGGGG | -3.28 ± 0.2 | -1.87 ± 0.18 |
| GCCGAGCAAUAUUACGAGCC | -3.06 ± 0.14 | -2.3 ± 0.24 |
| AAAUAGCAAUAUUACGCUUA | -1.47 ± 0.11 | -0.735 ± 0.13 |
| GUCCAGCAAUAUUACGUUCG | -1.26 ± 0.055 | -0.749 ± 0.079 |
| UGGGAGCAAUAUUACGGUGU | -2.52 ± 0.45 | -1.9 ± 0.37 |
| AAGGAGCAAUAUUACGAGCU | – | -0.204 ± 0.24 |
| AGAGAGCAAUAUUACGGAAU | -3.36 ± 0.32 | -1.79 ± 0.44 |
| CUUGAGCAAUAUUACGUUCU | -2.75 ± 0.41 | -3.71 ± 0.42 |
| CACUAGCAAUAUUACGAAAU | – | -1.38 ± 0.4 |
| CAAAAGCAAUAUUACGCCAU | -3.4 ± 0.2 | -2.61 ± 0.23 |

| Sequence | self-splicing fitness (ln) (30 °C) | self-splicing fitness (ln) (37 °C) |
| --- | --- | --- |
| GACUAGCAAUAUUACGCCUC | -0.374 ± 0.14 | -1.76 ± 0.16 |
| GGUGAGCAAUAUUACGUGUG | -3.28 ± 0.2 | -2.47 ± 0.2 |
| CGGUAGCAAUAUUACGCCAA | -2.52 ± 0.21 | -2.6 ± 0.3 |
| UACGAGCAAUAUUACGGUGA | -3.12 ± 0.18 | -1.21 ± 0.13 |
| GUCAAGCAAUAUUACGACUC | -1.73 ± 0.15 | -0.881 ± 0.15 |
| UUCAAGCAAUAUUACGCAGA | -3.11 ± 0.35 | -1.91 ± 0.2 |
| UAGAAGCAAUAUUACGGAGU | -3.56 ± 0.15 | -2.1 ± 0.13 |
| UUUUAGCAAUAUUACGUCCA | -1.59 ± 0.22 | -0.545 ± 0.19 |
| AGGAAGCAAUAUUACGUUAC | -2.66 ± 0.14 | -3.18 ± 0.28 |
| GGAUAGCAAUAUUACGGAGG | -3.06 ± 0.2 | -2.77 ± 0.3 |
| CACUAGCAAUAUUACGUCGU | -3.39 ± 0.11 | -1.76 ± 0.094 |
| UAAGAGCAAUAUUACGUACG | -1.42 ± 0.16 | -1.73 ± 0.17 |
| CCUAAGCAAUAUUACGUUGC | -3.6 ± 0.24 | -3.42 ± 0.34 |
| GGUGAGCAAUAUUACGUUAU | -3.23 ± 0.2 | -1.84 ± 0.19 |
| AGAUAGCAAUAUUACGUGCG | -1.19 ± 0.06 | -0.409 ± 0.081 |
| GGUCAGCAAUAUUACGUGUG | -1.39 ± 0.069 | -0.514 ± 0.092 |
| ACGCAGCAAUAUUACGAUAA | -2.84 ± 0.19 | -1.95 ± 0.15 |
| CAAAAGCAAUAUUACGCGGA | -3.43 ± 0.25 | -2.08 ± 0.17 |
| CAUUAGCAAUAUUACGGCAG | -0.186 ± 0.078 | -0.0776 ± 0.11 |
| GAUCAGCAAUAUUACGCUUA | -0.551 ± 0.12 | 0.0926 ± 0.13 |
| GAAUAGCAAUAUUACGUGCC | -0.897 ± 0.12 | -0.104 ± 0.15 |
| UAGCAGCAAUAUUACGCGCC | -1.77 ± 0.12 | -1.16 ± 0.19 |
| AAGCAGCAAUAUUACGAUAC | -2.7 ± 0.14 | -1.7 ± 0.18 |
| ACUCAGCAAUAUUACGUCCU | -1.18 ± 0.094 | 0.185 ± 0.11 |
| CGCUAGCAAUAUUACGAUGA | -1.14 ± 0.1 | -0.401 ± 0.087 |

| Sequence | self-splicing fitness (ln) (30 °C) | self-splicing fitness (ln) (37 °C) |
| --- | --- | --- |
| GCCUAGCAAUAUUACGUCAA | -2.16 ± 0.22 | -1.8 ± 0.18 |
| CAAAAGCAAUAUUACGUUGU | -3.3 ± 0.11 | -2.4 ± 0.14 |
| GCGCAGCAAUAUUACGUAGG | -0.838 ± 0.061 | -0.551 ± 0.086 |
| UCCUAGCAAUAUUACGCGUU | -2.01 ± 0.095 | -0.94 ± 0.1 |
| CGUGAGCAAUAUUACGAGCU | -2.79 ± 0.17 | -2.99 ± 0.25 |
| GGUGAGCAAUAUUACGUGAA | -1.76 ± 0.36 | -1.27 ± 0.32 |
| UCCCAGCAAUAUUACGCUAC | – | -2.27 ± 0.32 |
| CAGGAGCAAUAUUACGUACA | -2.55 ± 0.49 | -1.73 ± 0.42 |
| GGUUAGCAAUAUUACGGUGU | -2.18 ± 0.11 | -0.973 ± 0.15 |
| UCACAGCAAUAUUACGGCAC | -2.93 ± 0.27 | -2.49 ± 0.31 |
| CACAAGCAAUAUUACGCACA | -1.08 ± 0.087 | -0.518 ± 0.098 |
| AGCCAGCAAUAUUACGGAGG | -3.01 ± 0.14 | -1.8 ± 0.26 |
| AGGUAGCAAUAUUACGUUCU | -0.768 ± 0.014 | -0.545 ± 0.033 |
| UAGGAGCAAUAUUACGCUGG | -2.38 ± 0.43 | -0.826 ± 0.28 |
| GCGAAGCAAUAUUACGACAU | -0.422 ± 0.012 | 0.0421 ± 0.032 |
| GUGCAGCAAUAUUACGGUUA | -0.723 ± 0.092 | -0.164 ± 0.089 |
| GAUCAGCAAUAUUACGUUGU | -3.48 ± 0.13 | -2.78 ± 0.16 |
| GAUUAGCAAUAUUACGUGAC | -2.89 ± 0.12 | -0.588 ± 0.094 |
| GUAAAGCAAUAUUACGUAAG | -1.95 ± 0.1 | -1.2 ± 0.13 |
| ACUAAGCAAUAUUACGAACA | -1.86 ± 0.18 | -0.417 ± 0.19 |
| CGAGAGCAAUAUUACGGAAC | -1.56 ± 0.44 | – |
| UGAUAGCAAUAUUACGGAAC | – | -1.21 ± 0.42 |

Source: the supplement of paper PMC7877785
